Experimental data from the supplement of paper PMC10567573.

B1: ATL3 (parent)
chain: FSFRYQQELEEEIKELYENFCKHN

Variants of: B1
Assay: protein stability index of a GFP-peptide fusion (GPS, HEK-293T) (PSI 1-6); higher = more stable
Conditions: c terminus: a fixed tail appended
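Note: lentivirally expressed fusions sorted by FACS into six bins by GFP to DsRed ratio, PSI derived from sequencing read proportions per bin multiplied by bin number.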

Row | Variant | protein stability index
1 | FSFRYQQEDEEEIKELYENFCKHN | 3.2
2 | FSFRYQQEGEEEIKELYENFCKHN | 2.75
3 | FSFRYQQECEEEIKELYENFCKHN | 3.22
4 | FSFRYQQEREEEIKELYENFCKHN | 3.33
5 | FSFRYQQEIEEEIKELYENFCKHN | 2.5
6 | FSFRYQQETEEEIKELYENFCKHN | 3.48
7 | FSFRYQQEYEEEIKELYENFCKHN | 2.24
8 | FSFRYQQEFEEEIKELYENFCKHN | 2.16
9 | FSFRYQQEKEEEIKELYENFCKHN | 2.68
10 | FSFRYQQENEEEIKELYENFCKHN | 2.81
11 | FSFRYQQEHEEEIKELYENFCKHN | 3.64
12 | FSFRYQQESEEEIKELYENFCKHN | 2.41
13 | FSFRYQQEWEEEIKELYENFCKHN | 2.66
14 | FSFRYQQEAEEEIKELYENFCKHN | 2.6
15 | FSFRYQQEEEEEIKELYENFCKHN | 2.11
16 | FSFRYQQEVEEEIKELYENFCKHN | 2.11
17 | FSFRYQQEPEEEIKELYENFCKHN | 2.63
18 | FSFRYQQEQEEEIKELYENFCKHN | 3.09
19 | FSFRYQQEMEEEIKELYENFCKHN | 2.65
20 | FSFRYQQELQEEIKELYENFCKHN | 2
21 | FSFRYQQELNEEIKELYENFCKHN | 2.13
22 | FSFRYQQELFEEIKELYENFCKHN | 2.06
23 | FSFRYQQELDEEIKELYENFCKHN | 3.31
24 | FSFRYQQELGEEIKELYENFCKHN | 1.9

Row | Variant | protein stability index
25 | FSFRYQQELYEEIKELYENFCKHN | 1.75
26 | FSFRYQQELKEEIKELYENFCKHN | 2.2
27 | FSFRYQQELLEEIKELYENFCKHN | 1.6
28 | FSFRYQQELIEEIKELYENFCKHN | 1.46
29 | FSFRYQQELCEEIKELYENFCKHN | 1.77
30 | FSFRYQQELAEEIKELYENFCKHN | 2.02
31 | FSFRYQQELMEEIKELYENFCKHN | 1.75
32 | FSFRYQQELVEEIKELYENFCKHN | 1.47
33 | FSFRYQQELREEIKELYENFCKHN | 1.78
34 | FSFRYQQELWEEIKELYENFCKHN | 2.02
35 | FSFRYQQELSEEIKELYENFCKHN | 2.23
36 | FSFRYQQELPEEIKELYENFCKHN | 2.61
37 | FSFRYQQELTEEIKELYENFCKHN | 2.37
38 | FSFRYQQELHEEIKELYENFCKHN | 1.81
39 | FSFRYQKELEEEIKELYENFCKHN | 2.46
40 | FSFRYQLELEEEIKELYENFCKHN | 1.92
41 | FSFRYQFELEEEIKELYENFCKHN | 1.65
42 | FSFRYQRELEEEIKELYENFCKHN | 2.3
43 | FSFRYQWELEEEIKELYENFCKHN | 1.84
44 | FSFRYQNELEEEIKELYENFCKHN | 2.51
45 | FSFRYQSELEEEIKELYENFCKHN | 2.24
46 | FSFRYQPELEEEIKELYENFCKHN | 3.07
47 | FSFRYQEELEEEIKELYENFCKHN | 2.64
48 | FSFRYQTELEEEIKELYENFCKHN | 2.59

Row | Variant | protein stability index
49 | FSFRYQDELEEEIKELYENFCKHN | 2.35
50 | FSFRYQGELEEEIKELYENFCKHN | 3.13
51 | FSFRYQMELEEEIKELYENFCKHN | 2.39
52 | FSFRYQYELEEEIKELYENFCKHN | 2.91
53 | FSFRYQHELEEEIKELYENFCKHN | 2.2
54 | FSFRYQCELEEEIKELYENFCKHN | 2.15
55 | FSFRYQIELEEEIKELYENFCKHN | 1.75
56 | FSFRYQVELEEEIKELYENFCKHN | 2.17
57 | FSFRYQQELEEEIKALYENFCKHN | 1.38
58 | FSFRYQQELEEEIKGLYENFCKHN | 1.56
59 | FSFRYQQELEEEIKCLYENFCKHN | 1.67
60 | FSFRYQQELEEEIKNLYENFCKHN | 1.75
61 | FSFRYQQELEEEIKSLYENFCKHN | 2.03
62 | FSFRYQQELEEEIKMLYENFCKHN | 1.39
63 | FSFRYQQELEEEIKPLYENFCKHN | 1.59
64 | FSFRYQQELEEEIKILYENFCKHN | 1.71
65 | FSFRYQQELEEEIKDLYENFCKHN | 2.59
66 | FSFRYQQELEEEIKTLYENFCKHN | 1.83
67 | FSFRYQQELEEEIKLLYENFCKHN | 1.96
68 | FSFRYQQELEEEIKQLYENFCKHN | 1.91
69 | FSFRYQQELEEEIKRLYENFCKHN | 2.06
70 | FSFRYQQELEEEIKFLYENFCKHN | 1.56
71 | FSFRYQQELEEEIKHLYENFCKHN | 2.15
72 | FSFRYQQELEEEIKWLYENFCKHN | 2.29

Row | Variant | protein stability index
73 | FSFRYQQELEEEIKYLYENFCKHN | 1.8
74 | FSFRYQQELEEEIKVLYENFCKHN | 2.33
75 | FSFRYQQELEEEIKKLYENFCKHN | 2.96
76 | FSFRYQQELEEEAKELYENFCKHN | 2.31
77 | FSFRYQQELEEEEKELYENFCKHN | 2.9
78 | FSFRYQQELEEEDKELYENFCKHN | 2.69
79 | FSFRYQQELEEEYKELYENFCKHN | 2.83
80 | FSFRYQQELEEECKELYENFCKHN | 3.79
81 | FSFRYQQELEEEVKELYENFCKHN | 2.07
82 | FSFRYQQELEEEFKELYENFCKHN | 2.66
83 | FSFRYQQELEEEMKELYENFCKHN | 2.65
84 | FSFRYQQELEEEGKELYENFCKHN | 2.29
85 | FSFRYQQELEEENKELYENFCKHN | 2.46
86 | FSFRYQQELEEERKELYENFCKHN | 2.53
87 | FSFRYQQELEEEWKELYENFCKHN | 2.66
88 | FSFRYQQELEEEPKELYENFCKHN | 2.45
89 | FSFRYQQELEEEQKELYENFCKHN | 2.19
90 | FSFRYQQELEEEHKELYENFCKHN | 2.82
91 | FSFRYQQELEEETKELYENFCKHN | 2.91
92 | FSFRYQQELEEELKELYENFCKHN | 1.99
93 | FSFRYQQELEEEKKELYENFCKHN | 2.79
94 | FSFRYQQELEEESKELYENFCKHN | 2.17
95 | FSFRYQQELEELIKELYENFCKHN | 2.74
96 | FSFRYQQELEEHIKELYENFCKHN | 2.29

Row | Variant | protein stability index
97 | FSFRYQQELEEVIKELYENFCKHN | 2.08
98 | FSFRYQQELEEKIKELYENFCKHN | 2.27
99 | FSFRYQQELEEFIKELYENFCKHN | 1.91
100 | FSFRYQQELEEMIKELYENFCKHN | 1.76
101 | FSFRYQQELEENIKELYENFCKHN | 2.09
102 | FSFRYQQELEEDIKELYENFCKHN | 2.84
103 | FSFRYQQELEEAIKELYENFCKHN | 1.97
104 | FSFRYQQELEEIIKELYENFCKHN | 2.07
105 | FSFRYQQELEERIKELYENFCKHN | 1.76
106 | FSFRYQQELEEGIKELYENFCKHN | 2.1
107 | FSFRYQQELEECIKELYENFCKHN | 1.76
108 | FSFRYQQELEESIKELYENFCKHN | 2.03
109 | FSFRYQQELEEYIKELYENFCKHN | 2.06
110 | FSFRYQQELEEPIKELYENFCKHN | 2.17
111 | FSFRYQQELEEWIKELYENFCKHN | 2.04
112 | FSFRYQQELEEQIKELYENFCKHN | 2.53
113 | FSFRYQQELEETIKELYENFCKHN | 1.79
114 | FSFRYQQELEEEIKEIYENFCKHN | 2.59
115 | FSFRYQQELEEEIKESYENFCKHN | 2.79
116 | FSFRYQQELEEEIKETYENFCKHN | 2.5
117 | FSFRYQQELEEEIKERYENFCKHN | 2.71
118 | FSFRYQQELEEEIKEKYENFCKHN | 3.02
119 | FSFRYQQELEEEIKEHYENFCKHN | 3.48
120 | FSFRYQQELEEEIKEAYENFCKHN | 2.56

Row | Variant | protein stability index
121 | FSFRYQQELEEEIKEQYENFCKHN | 4.14
122 | FSFRYQQELEEEIKEPYENFCKHN | 3
123 | FSFRYQQELEEEIKEWYENFCKHN | 2.03
124 | FSFRYQQELEEEIKEFYENFCKHN | 2.62
125 | FSFRYQQELEEEIKEEYENFCKHN | 3.18
126 | FSFRYQQELEEEIKENYENFCKHN | 2.86
127 | FSFRYQQELEEEIKEMYENFCKHN | 3.39
128 | FSFRYQQELEEEIKEGYENFCKHN | 3.3
129 | FSFRYQQELEEEIKEVYENFCKHN | 2.28
130 | FSFRYQQELEEEIKECYENFCKHN | 2.42
131 | FSFRYQQELEEEIKEDYENFCKHN | 3.13
132 | FSFRYQQELEEEIKEYYENFCKHN | 2.13
133 | FSFRYQQQLEEEIKELYENFCKHN | 2.02
134 | FSFRYQQLLEEEIKELYENFCKHN | 2.1
135 | FSFRYQQALEEEIKELYENFCKHN | 1.91
136 | FSFRYQQPLEEEIKELYENFCKHN | 2.02
137 | FSFRYQQMLEEEIKELYENFCKHN | 1.97
138 | FSFRYQQWLEEEIKELYENFCKHN | 2.09
139 | FSFRYQQRLEEEIKELYENFCKHN | 1.65
140 | FSFRYQQTLEEEIKELYENFCKHN | 1.79
141 | FSFRYQQVLEEEIKELYENFCKHN | 1.46
142 | FSFRYQQILEEEIKELYENFCKHN | 1.72
143 | FSFRYQQYLEEEIKELYENFCKHN | 1.79
144 | FSFRYQQHLEEEIKELYENFCKHN | 2.27

Row | Variant | protein stability index
145 | FSFRYQQGLEEEIKELYENFCKHN | 2.68
146 | FSFRYQQKLEEEIKELYENFCKHN | 1.69
147 | FSFRYQQCLEEEIKELYENFCKHN | 2.11
148 | FSFRYQQSLEEEIKELYENFCKHN | 1.89
149 | FSFRYQQFLEEEIKELYENFCKHN | 1.89
150 | FSFRYQQNLEEEIKELYENFCKHN | 2.44
151 | FSFRYQQELEEEIGELYENFCKHN | 2.37
152 | FSFRYQQELEEEIYELYENFCKHN | 1.62
153 | FSFRYQQELEEEIWELYENFCKHN | 2.73
154 | FSFRYQQELEEEITELYENFCKHN | 2.29
155 | FSFRYQQELEEEISELYENFCKHN | 1.66
156 | FSFRYQQELEEEIPELYENFCKHN | 2.05
157 | FSFRYQQELEEEIDELYENFCKHN | 2.81
158 | FSFRYQQELEEEIHELYENFCKHN | 2.28
159 | FSFRYQQELEEEILELYENFCKHN | 1.49
160 | FSFRYQQELEEEIRELYENFCKHN | 2.72
161 | FSFRYQQELEEEIMELYENFCKHN | 1.53
162 | FSFRYQQELEEEIVELYENFCKHN | 2.17
163 | FSFRYQQELEEEIEELYENFCKHN | 2.53
164 | FSFRYQQELEEEIQELYENFCKHN | 2.39
165 | FSFRYQQELEEEICELYENFCKHN | 2.15
166 | FSFRYQQELEEEIAELYENFCKHN | 2.33
167 | FSFRYQQELEEEINELYENFCKHN | 2.31
168 | FSFRYQQELEEEIIELYENFCKHN | 1.62

Row | Variant | protein stability index
169 | FSFRYQQELEEEIFELYENFCKHN | 1.87
170 | FSFRYQQELEKEIKELYENFCKHN | 2.55
171 | FSFRYQQELEYEIKELYENFCKHN | 1.6
172 | FSFRYQQELEGEIKELYENFCKHN | 2.21
173 | FSFRYQQELECEIKELYENFCKHN | 1.61
174 | FSFRYQQELEAEIKELYENFCKHN | 2.76
175 | FSFRYQQELEHEIKELYENFCKHN | 2.29
176 | FSFRYQQELEDEIKELYENFCKHN | 2.38
177 | FSFRYQQELEIEIKELYENFCKHN | 2.11
178 | FSFRYQQELEVEIKELYENFCKHN | 1.53
179 | FSFRYQQELETEIKELYENFCKHN | 2.74
180 | FSFRYQQELESEIKELYENFCKHN | 2.58
181 | FSFRYQQELEMEIKELYENFCKHN | 2.37
182 | FSFRYQQELEWEIKELYENFCKHN | 1.8
183 | FSFRYQQELELEIKELYENFCKHN | 1.58
184 | FSFRYQQELEQEIKELYENFCKHN | 2.18
185 | FSFRYQQELEREIKELYENFCKHN | 1.98
186 | FSFRYQQELENEIKELYENFCKHN | 2.69
187 | FSFRYQQELEPEIKELYENFCKHN | 2.25
188 | FSFRYQQELEFEIKELYENFCKHN | 1.45
